Assay [1] deals with T1, TPR domain of AtToc64 (AtToc64_TPR-H6) (Arabidopsis thaliana, UniProt Q9LVH5).
T1 construct: The region encompassing the TPR domain of AtToc64 was composed of residues 474–589; made in house; host or cells: E. coli BL21(DE3)
Nature of the assay: biochemical. It is filed as binding. Here is the method:
Peptides were dissolved in the superdex buffer at 6–14 mM concentration and 302 µL were titrated against 1.4 ml of protein at 0.1–0.3 mM in a VP-ITC Microcal Instrument (GE Healthcare). Titrations were carried out at 20°C using 30 injections of 10 µL each injected at interval of 200 seconds. Injections were continued beyond saturation levels to allow determination of the heats of ligand dilution. The non-linear least square curve-fitting algorithm (Microcal Origin) was used for data fitting. After subtraction of the heat of dilution, three floating variables: stoichiometry (N), binding constant (Kd) and change in enthalpy of interaction (ΔH) were obtained. For subsequent alanine scan experiments the stoichiometry was fixed at N = 1.

The target in assay [2] is TPR domain of AtToc64 with a C-terminal hexa-histidine tag (AtToc64_TPR-H6) (Arabidopsis thaliana) (UniProt Q9LVH5). Nature of the assay: ITC; peptide (6-14 mM) titrated into AtToc64_TPR-H6 (0.1-0.3 mM) in the cell, VP-ITC, 20°C, 25 mM Hepes, 100 mM KCl, pH 7.3; 1:1 model, stoichiometry fixed at N = 1 for the alanine scan.
The target in assay [3] is T2, TPR domain of AtToc64 with a C-terminal hexa-histidine tag (AtToc64_TPR-H6) (Arabidopsis thaliana, UniProt Q9LVH5 474-589).
T2 construct: Toc64 (AtToc64) from Arabidopsis thaliana, TPR domain, residues 474-589 of the full-length protein (NP_188424, At3g17970); Cloned with NcoI/XhoI into pETM10; also called TPR domain of Toc64 from Arabidopsis thaliana; source: E. coli BL21(DE3), purified (Ni-NTA, size exclusion chromatography); not shown: His6, C-terminal, kept
T2 sequence (looked up): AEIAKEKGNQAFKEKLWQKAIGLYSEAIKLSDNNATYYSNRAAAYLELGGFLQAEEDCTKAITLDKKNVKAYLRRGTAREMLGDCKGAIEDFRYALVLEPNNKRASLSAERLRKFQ
Nature of the assay: ITC; peptide (6-14 mM) titrated into 1.4 ml of protein (0.1-0.3 mM) in the cell; 20°C; 25 mM Hepes, 100 mM KCl, pH 7.3; 30 injections of 10 µL; 1:1 binding model with N, Kd and ΔH floating. The conditions noted are these: both partners purified.

Assay [4] has as its target T3, TPR domain of AtToc64 with a C-terminal hexa-histidine tag (AtToc64_TPR-H6) (Arabidopsis thaliana, UniProt Q9LVH5 474-589).
T3 chain: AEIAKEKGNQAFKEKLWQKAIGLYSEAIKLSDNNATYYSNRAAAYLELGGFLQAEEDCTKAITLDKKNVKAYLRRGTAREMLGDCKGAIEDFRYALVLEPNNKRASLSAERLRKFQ
Briefly: ITC.

Assay [5] concerns the target T2, TPR domain of AtToc64 with a C-terminal …. Briefly: ITC; peptide (6-14 mM) titrated into 1.4 ml of protein (0.1-0.3 mM) in the cell; 20°C; 25 mM Hepes, 100 mM KCl, pH 7.3; 30 injections of 10 µL; 1:1 binding model with N, Kd and ΔH floating. The following applies: both partners purified. The source holds these as a separate data set.
Where [6] appears, read: ITC alanine scanning, Table S1, stoichiometry fixed at N = 1, 20°C.
Where [7] appears, read: ITC, Figure 4, alanine scanning of octapeptides, stoichiometry fixed at N = 1 for alanine scan, 20°C.

Like-named read-outs stand apart in the source and are kept apart here. Where no end group is shown, it is not given here.

The results in this text go back to paper PMC3877065, “Ligand Recognition by the TPR Domain of the Import Factor Toc64 from Arabidopsis thaliana” (PLoS ONE, 2013).

The molecule `CC[C@H](C)[C@H](N)C(=O)N[C@@H](CCC(=O)O)C(=O)N[C@@H](CCC(=O)O)C(=O)N[C@H](C(=O)N[C@@H](CC(=O)O)C(=O)O)C(C)C` [IEEVD] came in with a Kd in assay [1] of 568 µM.
On the same count and under the same terms, the value for `CSCC[C@H](N)C(=O)N[C@@H](CCC(=O)O)C(=O)N[C@@H](CCC(=O)O)C(=O)N[C@H](C(=O)N[C@@H](CC(=O)O)C(=O)O)C(C)C` [MEEVD] was 800 µM; that for GPTAEEVD [GPTAEEVD] was 4650 µM.
As to “GPTIEAVD [Ala-substituted Hsp70 octapeptide]”, in assay [1] (setting [6]), the Kd result is “No binding”.
In the case of “GPTIEEAD [Ala-substituted Hsp70 octapeptide]”, the Kd entry in assay [1] (setting [6]) is listed as “No binding”.
On the same count and under the same terms, the value for “GPTIEEVA [Ala-substituted Hsp70 octapeptide]” was “No binding”.
In turn, GPTIEEVD [GPTIEEVD] had a Kd in assay [1] of 230 µM.
As to “Hsp70 C-terminal octapeptide, alanine mutant APTIEEVD”, in assay [2], the Kd worked out at 740 µM and the stoichiometry N amounted to 1.
The corresponding values for “Hsp70 C-terminal octapeptide, alanine mutant GATIEEVD” are 657 µM and 1.
In assay [2], “Hsp70 C-terminal octapeptide, alanine mutant GPAIEEVD” registered a Kd of 769 µM and a stoichiometry N of 1.
“Hsp70 C-terminal octapeptide, alanine mutant GPTAEEVD” had a stoichiometry N in assay [2] of 1.
In assay [2], “Hsp90 C-terminal octapeptide, alanine mutant ASRMEEVD” gave a Kd of 854 µM and a stoichiometry N of 1.
The corresponding values for “Hsp90 C-terminal octapeptide, alanine mutant TARMEEVD” are 344 µM and 1.
Consider “Hsp90 C-terminal octapeptide, alanine mutant TSAMEEVD”, for which, in assay [2], the Kd was determined as 100 µM and the stoichiometry N turned out to be 1.
On to “Hsp90 C-terminal octapeptide, alanine mutant TSRAEEVD”, for which, in assay [2], the Kd was determined as 1080 µM and the stoichiometry N turned out to be 1.
The molecule “Hsp90 C-terminal octapeptide, alanine mutant TSRMEAVD” showed a stoichiometry N in assay [2] of 1.
On the same count and under the same terms, the value for “Hsp90 C-terminal octapeptide, alanine mutant TSRMEEVA” was 1.
On to “TSRMAEVD [Ala-substituted Hsp90 octapeptide]”, for which the results for the Kd entry in assay [1] (setting [6]) and in assay [1] (setting [7]) were “No binding*” and “No binding”, respectively.
In turn, TSRMEAVD [TSRMEAVD] had a Kd in assay [1] of 1910 µM.
Regarding “TSRMEEAD [Ala-substituted Hsp90 octapeptide]”, the Kd entry in assay [1] (setting [7]) is reported as “No binding”.
Molecule TSRMEEVA [TSRMEEVA] displayed a Kd in assay [1] of 1400 µM.
On the same count and under the same terms, the value for TSRMEEVD [TSRMEEVD] was 218 µM.

B1: C-terminal octapeptide of Hsp70 (GPTIEEVD) (peptide)
peptide: GPTIEEVD
notes: C-terminal octapeptide of Hsp70; also called Hsp70 octapeptide; C70_C8; source: synthetic peptide (Biomatik, >85% purity)
As to B1, in assay [3], the dH was -1 kcal/mol and the “stoichiometry N” value was found to be 1.2.
Molecule GPAIEEVD [Hsp70 C-terminal octapeptide, Thr119 to Ala (GPAIEEVD)] displayed a Kd in assay [4] of 769 µM.
Still for that read-out and setting: the value for GATIEEVD [Hsp70 C-terminal octapeptide, Pro118 to Ala (GATIEEVD)] was 657 µM; that for TSAMEEVD [Hsp90 C-terminal octapeptide, Arg119 to Ala (TSAMEEVD)] was 100 µM; that for TARMEEVD [Hsp90 C-terminal octapeptide, Ser118 to Ala (TARMEEVD)] was 344 µM.

B2: C-terminal octapeptide of Hsp90 (TSRMEEVD) (peptide)
peptide: TSRMEEVD
notes: C-terminal octapeptide of Hsp90; also called Hsp90 octapeptide; C90_C8; source: synthetic peptide (Biomatik, >85% purity)
Consider B2, for which, in assay [3], the dH was -6.18 kcal/mol and the “stoichiometry N” value was found to be 0.94.
As for APTIEEVD [Hsp70 C-terminal octapeptide, Gly117 to Ala], the Kd in assay [4] turned out to be 740 µM.
Still for that read-out and setting: the value for TSRMEAVD [Hsp90 C-terminal octapeptide, Glu122 to Ala (TSRMEAVD)] was 1900 µM.

B3: C-terminal pentapeptide of Hsp70, Hsp70_C5 (IEEVD) (peptide)
peptide: IEEVD
notes: C-terminal pentapeptide of Hsp70; also called C70_C5; Hsp70 pentapeptide; source: synthetic peptide (Biomatik, >85% purity)
As to B3, the “stoichiometry N” value in assay [5] turned out to be 1.2. Besides, in assay [3], the dH was -1.63 kcal/mol and the “stoichiometry N” value stood at 0.93.

B4: C-terminal pentapeptide of Hsp90, Hsp90_C5 (MEEVD) (peptide)
peptide: MEEVD
notes: C-terminal pentapeptide of Hsp90; also called C90_C5; Hsp90 pentapeptide; source: synthetic peptide (Biomatik, >85% purity)
Consider B4, for which, in assay [3], the dH is -2.68 kcal/mol and the “stoichiometry N” value came to 1.04.
On to TSRAEEVD [Hsp90 C-terminal octapeptide, Met120 to Ala (TSRAEEVD)], for which, in assay [4], the Kd turned out to be 1080 µM.
The same measure, in the same setting: the value for TSRMEEVA [Hsp90 C-terminal octapeptide, Asp124 to Ala] was 1400 µM; that for GPTAEEVD [Hsp70 C-terminal octapeptide, Ile120 to Ala (GPTAEEVD)] was 4600 µM; that for ASRMEEVD [Hsp90 C-terminal octapeptide, Thr117 to Ala] was 854 µM.
